Test results from publication PMC10971408.
Where “and” joins values, the source holds several entries; their conditions need not be identical. Identical values can stand only once.

Target: Cys101 (UniProt position 101, YVTSVCTGSLV)
Experiment: crystallography
Settings: data collected at 100 K; crystals grown at 20°C; 200 mM MgCl2 in reservoir; 100 mM tris-HCl (pH 8.3), sodium citrate (pH 6.0), or sodium acetate (pH 4.2, 5.0, 5.4); 23% PEG 3350, 2 mM DTT; substrate-free wild-type enzyme in crystals, reduced Cys101 (DTT present)

Substance: Isocyanide hydratase (ICH, PfICH) (Pseudomonas fluorescens)
- pKa: 5.7 and 5 to 6
